Experiments:
[1] = biological target: human CD3 (CD3ε of the TCR/CD3 complex) on purified human CD3 T cells (human) (UniProt P07766); assay: flow cytometry on purified human CD3 T cells, antibody at 0.1 µg/ml
[2] = biological target: human CD3 (CD3ε of the TCR/CD3 complex) on purified human CD3 T cells (human) (UniProt P07766); assay: flow cytometry on purified human CD3 T cells, antibody at 1 µg/ml
[3] = biological target: human CD3 (CD3ε of the TCR/CD3 complex) on purified human CD3 T cells (human) (UniProt P07766); assay: flow cytometry on CD3+ Jurkat cells, 10 µg/mL, FL4: anti-His mouse mAb + APC anti mIgG, RED2-HLin (right panel); unstained Jurkat 7.61
[4] = biological target: human CD3 (CD3ε of the TCR/CD3 complex) on purified human CD3 T cells (human) (UniProt P07766); assay: flow cytometry on purified human CD3 T cells, antibody at 10 µg/ml
[5] = biological target: human CD3 (CD3ε of the TCR/CD3 complex) on purified human CD3 T cells (human) (UniProt P07766); assay: flow cytometry on CD3+ Jurkat cells, 10 µg/mL, FL1: anti-His FITC, GRN-HLin (left panel). DOUBTFUL: the printed value disagrees with the histogram, which lies right of ESK1+L2K, and equals the second row of the left table of FIGURE 8

- Median fluorescence intensity (MFI) [1]: 26.2 MFI
- Median fluorescence intensity (MFI) [2]: 153 MFI
- Geom. Mean [3]: 94.3
- Median fluorescence intensity (MFI) [4]: 188 MFI
- Geom. Mean [5]: 47.9
B1: control bi-specific antibody (irrelevant human IgG1 antibody ET901 as scFv replacing ESK1 scFv, with anti-CD3 scFv) (bispecific antibody, part only; not given: ET901 control scFv, part only)
chain, part: DVQLVQSGAEVKKPGASVKVSCKASGYTFTRYTMHWVRQAPGQGLEWIGYINPSRGYTNYADSVKGRFTITTDKSTSTAYMELSSLRSEDTATYYCARYYDDHYCLDYWGQGTTVTVSSGEGTSTGSGGSGGSGGADDIVLTQSPATLSLSPGERATLSCRASQSVSYMNWYQQKPGKAPKRWIYDTSKVASGVPARFSGSGSGTDYSLTINSLEAEDAATYYCQQWSSNPLTFGGGTKVEIK

Source: patent US20160280796A1
